How the values were obtained:
[1] = target: human CD47:Fc protein (human) (UniProt Q08722); test: ELISA; dual-binding ELISA: human CD47:Fc as capture, DSP107 titrated, human biotinylated-4-1BB as detector; three separately produced batches of DSP107
[2] = target: human CD47 (surface plasmon resonance) (human) (UniProt Q08722); test: SPR; orientation and conditions not given (Table S2, supplementary methods)
[3] = target: cynomolgus 4-1BB (cynomolgus); test: as above
[4] = target: human 4-1BB (surface plasmon resonance) (human) (UniProt Q07011); test: as above
Chain of human 4-1BB (surface plasmon resonance) (human) (Q07011 24-255): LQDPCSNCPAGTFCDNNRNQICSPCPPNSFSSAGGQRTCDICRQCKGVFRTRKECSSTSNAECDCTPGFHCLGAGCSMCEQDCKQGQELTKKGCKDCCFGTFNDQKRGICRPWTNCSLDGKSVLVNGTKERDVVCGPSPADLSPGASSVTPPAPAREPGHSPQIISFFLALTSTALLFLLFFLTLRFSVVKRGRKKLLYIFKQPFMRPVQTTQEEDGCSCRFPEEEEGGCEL

[5] = target: cynomolgus CD47 (cynomolgus); test: as above
[6] = target: 4-1BB on HT1080.4-1BB cells (UniProt Q07011); test: cell doublet formation by flow cytometry; mixed CFSE stained CHO.CD47 and CytoLightRed stained HT1080.4-1BB cells with 5 μg/ml DSP107; doublets as double-positive events; blocking with CD47 mAb or soluble 4-1BBL
Chain of 4-1BB on HT1080.4-1BB cells (Q07011 24-255): as above

[7] = target: human CD47 expressed on CHO-K1 cells (human) (UniProt Q08722); test: as above
Chain of human CD47 expressed on CHO-K1 cells (human) (Q08722 19-323): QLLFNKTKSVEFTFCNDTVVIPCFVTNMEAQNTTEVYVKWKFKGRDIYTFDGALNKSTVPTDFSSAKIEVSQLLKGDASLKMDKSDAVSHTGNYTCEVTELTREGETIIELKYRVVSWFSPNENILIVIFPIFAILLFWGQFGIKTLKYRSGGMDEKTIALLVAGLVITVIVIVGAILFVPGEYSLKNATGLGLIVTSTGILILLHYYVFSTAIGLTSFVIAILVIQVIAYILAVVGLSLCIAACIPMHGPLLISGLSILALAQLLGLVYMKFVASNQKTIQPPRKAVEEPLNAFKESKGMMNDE

[8] = target: Dual Signaling Protein 107 (DSP107) (human) (UniProt P78324); test: SEC-MALS; purified DSP107 in solution

Chain of human CD47 (surface plasmon resonance) (human) (Q08722 19-323): as above

EC50 [1]: 0.94 nM | Kd [2]: 1.17 nM | Kd [3]: 0.34 nM | Kd [4]: 0.7 nM | Kd [5]: 1.75 nM | percent doublets of CHO-K1.CD47 and HT1080.4-1BB cells [6]: 25% | percent doublets of CHO-K1.CD47 and HT1080.4-1BB cells [7]: 25% | stoichiometry N [8]: 3
Substance: Dual Signaling Protein 107 (DSP107) (from UniProt P78324 31-373; P41273 50-254)
